Results on six molecules are retold here after article PMC3923060, “HCV Core Residues Critical for Infectivity Are Also Involved in Core-NS5A Complex Formation” (PLoS ONE, 2014).

Assay [1] deals with 3xFlag-Core R59A (hepatitis C virus genotype 2a, strain JFH1). The experiment in a line: co-IP; SGR-JFH1 (Huh7 subgenomic JFH1 replicon) cells transfected with 3xFlag-Core (wild type or mutants); anti-Flag M2 agarose, eluted with 3xFLAG peptide; anti-NS5A blot, quantified by IR fluorescence and normalised to precipitated core and expression, three experiments. Background: A replicon is a self-replicating genome or part of one, used to study replication in cells.

Assay [2] deals with 3xFlag-Core R50A (hepatitis C virus genotype 2a, strain JFH1). The description is as above.
For assay [3], the target named is 3xFlag-Core R62A (hepatitis C virus genotype 2a, strain JFH1). Described as above.
The target of assay [4] is Core-Flag-R50A/K51A/R59A/R62A (hepatitis C virus genotype 2a, strain JFH1). Put plainly: co-IP; Huh7.5.1 stable cell lines expressing full-length JFH1-Luc/Neo-Core-Flag genomes (wild type or core mutants); anti-Flag M2 agarose, eluted with 3xFLAG peptide; anti-NS5A blot, quantified by IR fluorescence, three experiments.
Assay [5] addresses T1, full-length NS5A-His (hepatitis C virus genotype 2a, strain …, UniProt Q99IB8 1977-2442).
T1 construct: HCV nonstructural protein 5A (NS5A), genotype 2a strain JFH1, full-length; pET-UbCHis vector; also called recombinant NS5A-His; source: E. coli BL21(DE3)pCG1, purified as described previously [60]; not shown: His6, C-terminal, kept
T1 sequence: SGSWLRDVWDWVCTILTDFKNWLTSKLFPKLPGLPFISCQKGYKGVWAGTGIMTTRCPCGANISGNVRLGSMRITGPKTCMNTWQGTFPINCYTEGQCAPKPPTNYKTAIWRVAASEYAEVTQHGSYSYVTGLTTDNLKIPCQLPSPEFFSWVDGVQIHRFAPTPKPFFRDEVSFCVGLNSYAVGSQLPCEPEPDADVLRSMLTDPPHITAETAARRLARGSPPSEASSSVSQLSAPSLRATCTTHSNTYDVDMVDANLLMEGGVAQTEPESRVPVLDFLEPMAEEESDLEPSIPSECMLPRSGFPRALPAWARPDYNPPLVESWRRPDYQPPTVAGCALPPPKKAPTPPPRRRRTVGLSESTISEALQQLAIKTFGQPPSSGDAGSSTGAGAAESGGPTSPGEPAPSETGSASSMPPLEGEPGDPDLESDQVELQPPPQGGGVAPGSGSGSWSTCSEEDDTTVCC
Put plainly: pull-down; as a4, proteins treated with 1, 5 or 10 µM BMS-790052 for 30 min at 4°C. Particulars: both partners purified.

Assay [6] concerns the target T1, full-length NS5A-His. Put plainly: pull-down; 4 µg GST protein (bait) mixed with 10 µg NS5A protein in 100 µl binding buffer (50 mM Tris-HCl pH 7.5, 100 mM NaCl, 5 mM MgCl2, 10% glycerol, 0.5% Igepal CA-630, 1 mM DTT), 3 h at 4°C, then glutathione beads 1 h; Western blot (anti-NS5A, anti-Flag), in Figure 3 quantified by IR fluorescence. The conditions noted are these: both partners purified. For orientation: In western blotting, separated proteins are transferred to a membrane and probed.

In the case of “subgenomic NS5A (from UniProt Q99IB8 1977-2442) (natural protein)”, the percent reduction in NS5A binding against wild type in assay [1] was found to be 65%; in assay [2], 8%; in assay [3], 17%.
In assay [4], “NS5A from JFH1-Luc/Neo-Core-Flag expressing cells (from UniProt Q99IB8 1977-2442) (natural protein)” displayed a percent reduction in NS5A binding against wild-type core of 85%.

B1: GST-Core1-170-His (domain or fragment)
chain: MSTNPKPQRKTKRNTNRRPEDVKFPGGGQIVGGVYLLPRRGPRLGVRTTRKTSERSQPRGRRQPIPKDRRSTGKAWGKPGRPWPLYGNEGLGWAGWLLSPRGSRPSWGPTDPRHRSRNVGKVIDTLTCGFADLMGYIPVVGAPLSGAARAVAHGVRVLEDGVNYATGNLP
notes: HCV core protein, genotype 2a strain JFH1, residues 1-170 (domains D1 and D2); pGEX-2T; also called GST-Core-His; core (D1 and D2 domains); not shown: GST, N-terminal, kept; His6, C-terminal, kept
Turning to B1, the binding result in the assay with full-length NS5A-His [5] is recorded as “binds”.

B2: GST-Core101-121-His (domain or fragment)
chain: RGSRPSWGPTDPRHRSRNVGK
notes: HCV core protein, genotype 2a strain JFH1, residues 101-121 (basic domain 3); linker as in m1; also called BD3; BD3 (101-121); not shown: GST, N-terminal, kept; His6, C-terminal, kept
Take B2: the binding result with full-length NS5A-His [6] is listed as “binds”.

B3: GST-Core2-23-His (domain or fragment)
chain: STNPKPQRKTKRNTNRRPEDVK
notes: HCV core protein, genotype 2a strain JFH1, residues 2-23 (basic domain 1); linker as in m1; also called BD1; BD1 (2-23); not shown: GST, N-terminal, kept; His6, C-terminal, kept
As for B3, in the assay with full-length NS5A-His [6], the binding result is listed as “binds”.

B4: GST-Core-BD2-His (domain or fragment)
chain: PRRGPRLGVRTTRKTSERSQPRGRRQPIPKDRRSTGK
notes: HCV core protein, genotype 2a strain JFH1, residues 38-74 (basic domain 2); linker as in m1; also called GST-Core38-74-His; GST-BD2-His; not shown: GST, N-terminal, kept; His6, C-terminal, kept
With B4, the binding result with full-length NS5A-His [6] is reported as “binds”.
